Measured values taken from PMC7847308, “Nanoscopic anatomy of dynamic multi-protein complexes at membranes resolved by graphene-induced energy transfer” (eLife, 2021).

Assays:
Conditions in all cases: both partners purified
[1] = biological target: T1, HOPS complex with Vps33 C-terminally fused to yEGFP (S. cerevisiae, UniProt P38959 1-992; Q07468 1-1049; P12868 1-1029; P27801 1-918; Q03308 1-798; P20795 …); test: confocal fluorescence imaging and FLIM of recruitment to supported lipid layers; 50 nM yEGFP-fused HOPS added for 5 min at room temperature to DOPC bilayers on glass or monolayers on graphene loaded with 150 nM pYpt7-GTP; washed 5 times with HBS
T1 construct: Vps41, HOPS subunit, S. cerevisiae; Vps39, HOPS subunit, S. cerevisiae; Vps11, HOPS subunit, S. cerevisiae; Vps18, HOPS subunit, S. cerevisiae; Vps16, HOPS subunit, S. cerevisiae; Vps33, HOPS subunit, S. cerevisiae; In the single-molecule experiment labelled with 50 pM Dy647-coupled anti-GFP nanobody; also called HOPS Vps33-yEGFP; HOPS Vps33; source: S. cerevisiae, overexpressed, purified (IgG …)

[2] = biological target: T2, HOPS complex with Vps16 C-terminally fused to yEGFP (S. cerevisiae, UniProt P38959 1-992; Q07468 1-1049; P12868 1-1029; P27801 1-918; Q03308 1-798; P20795 …); test: as above
T2 construct: Vps41, HOPS subunit, S. cerevisiae; Vps39, HOPS subunit, S. cerevisiae; Vps11, HOPS subunit, S. cerevisiae; Vps18, HOPS subunit, S. cerevisiae; Vps16, HOPS subunit, S. cerevisiae; Vps33, HOPS subunit, S. cerevisiae; also called HOPS Vps16-yEGFP; HOPS (Vps16-yEGFP); source: S. cerevisiae, overexpressed, purified (IgG Sepharose, TEV elution); copies: + + + + +

[3] = biological target: T3, HOPS complex with Vps39 C-terminally fused to yEGFP (S. cerevisiae, UniProt P38959 1-992; Q07468 1-1049; P12868 1-1029; P27801 1-918; Q03308 1-798; P20795 …); test: as above
T3 construct: Vps41, HOPS subunit, S. cerevisiae; Vps39, HOPS subunit, S. cerevisiae; Vps11, HOPS subunit, S. cerevisiae; Vps18, HOPS subunit, S. cerevisiae; Vps16, HOPS subunit, S. cerevisiae; Vps33, HOPS subunit, S. cerevisiae; also called HOPS Vps39-yEGFP; yEGFP-tagged HOPS; source: S. cerevisiae, overexpressed, purified (IgG Sepharose, TEV elution); copies: + + + + +

[4] = biological target: T4, HOPS complex with Vps11 C-terminally fused to yEGFP (S. cerevisiae, UniProt P38959 1-992; Q07468 1-1049; P12868 1-1029; P27801 1-918; Q03308 1-798; P20795 …); test: as above
T4 construct: Vps41, HOPS subunit, S. cerevisiae; Vps39, HOPS subunit, S. cerevisiae; Vps11, HOPS subunit, S. cerevisiae; Vps18, HOPS subunit, S. cerevisiae; Vps16, HOPS subunit, S. cerevisiae; Vps33, HOPS subunit, S. cerevisiae; In the single-molecule experiment labelled with 50 pM Dy647-coupled anti-GFP nanobody; also called HOPS Vps11-yEGFP; HOPS Vps11; source: S. cerevisiae, overexpressed, purified (IgG …)

[5] = biological target: T5, HOPS complex with Vps18 C-terminally fused to yEGFP (S. cerevisiae, UniProt P38959 1-992; Q07468 1-1049; P12868 1-1029; P27801 1-918; Q03308 1-798; P20795 …); test: as above
T5 construct: Vps41, HOPS subunit, S. cerevisiae; Vps39, HOPS subunit, S. cerevisiae; Vps11, HOPS subunit, S. cerevisiae; Vps18, HOPS subunit, S. cerevisiae; Vps16, HOPS subunit, S. cerevisiae; Vps33, HOPS subunit, S. cerevisiae; also called HOPS Vps18-yEGFP; yEGFP-tagged HOPS; source: S. cerevisiae, overexpressed, purified (IgG Sepharose, TEV elution); copies: + + + + +

Mon1-Ccz1 complex = biological target: T6, Mon1-Ccz1 complex (S. cerevisiae, UniProt P53129 1-644; P38273 1-704); test: GIET fluorescence lifetime (FLIM) on graphene-supported lipid monolayers; 200 nM mNeon-pYpt7-GTP anchored in lipid layers on graphene and glass; 100 nM Mon1-Ccz1 or HOPS added for 5 min at room temperature, washed 8 times with HBS; lifetime ratio of mNeon
T6 construct: Mon1, S. cerevisiae; chromosomal locus under the GAL1 promoter; Ccz1, S. cerevisiae; chromosomal locus under the GAL1 promoter, TAP-tagged; Eluted from IgG beads by TEV cleavage; also called GEF; source: S. cerevisiae, overexpressed, purified (IgG Sepharose, TEV elution)
T6 sequence (looked up) 1: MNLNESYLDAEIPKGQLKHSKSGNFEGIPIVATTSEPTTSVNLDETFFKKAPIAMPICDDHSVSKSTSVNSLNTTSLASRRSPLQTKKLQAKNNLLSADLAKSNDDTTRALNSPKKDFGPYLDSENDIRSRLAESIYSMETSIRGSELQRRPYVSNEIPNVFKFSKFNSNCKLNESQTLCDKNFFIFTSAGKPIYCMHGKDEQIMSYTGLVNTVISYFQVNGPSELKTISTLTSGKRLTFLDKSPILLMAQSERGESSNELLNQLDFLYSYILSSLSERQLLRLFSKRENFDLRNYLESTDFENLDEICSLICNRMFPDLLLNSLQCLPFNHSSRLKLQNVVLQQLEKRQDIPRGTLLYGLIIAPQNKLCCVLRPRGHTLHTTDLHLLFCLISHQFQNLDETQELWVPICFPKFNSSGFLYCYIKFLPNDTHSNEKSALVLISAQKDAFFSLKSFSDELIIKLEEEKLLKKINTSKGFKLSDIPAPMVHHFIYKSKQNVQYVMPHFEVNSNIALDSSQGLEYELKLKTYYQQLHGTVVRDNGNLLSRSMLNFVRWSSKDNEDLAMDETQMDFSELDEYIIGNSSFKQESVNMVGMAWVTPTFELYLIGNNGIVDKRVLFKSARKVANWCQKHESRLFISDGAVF
T6 sequence (looked up) 2: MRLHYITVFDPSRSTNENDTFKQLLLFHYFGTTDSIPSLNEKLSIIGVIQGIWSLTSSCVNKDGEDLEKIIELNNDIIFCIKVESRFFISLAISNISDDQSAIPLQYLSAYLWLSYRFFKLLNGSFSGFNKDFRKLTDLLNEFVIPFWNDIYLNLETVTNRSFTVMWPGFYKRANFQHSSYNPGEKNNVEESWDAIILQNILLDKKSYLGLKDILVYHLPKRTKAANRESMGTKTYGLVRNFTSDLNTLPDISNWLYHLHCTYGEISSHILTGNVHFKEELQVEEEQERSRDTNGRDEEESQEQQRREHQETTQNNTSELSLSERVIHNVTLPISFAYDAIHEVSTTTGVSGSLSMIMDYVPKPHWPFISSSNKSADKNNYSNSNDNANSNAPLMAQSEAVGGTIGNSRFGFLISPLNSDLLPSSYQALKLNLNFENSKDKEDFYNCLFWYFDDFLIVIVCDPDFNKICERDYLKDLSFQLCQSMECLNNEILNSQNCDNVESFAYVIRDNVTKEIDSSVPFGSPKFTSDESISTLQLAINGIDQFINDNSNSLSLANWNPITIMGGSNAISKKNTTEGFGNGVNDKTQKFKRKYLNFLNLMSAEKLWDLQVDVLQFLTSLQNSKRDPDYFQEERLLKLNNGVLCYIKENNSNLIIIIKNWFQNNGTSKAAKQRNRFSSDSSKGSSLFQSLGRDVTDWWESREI

HOPS complex = biological target: T7, HOPS complex (S. cerevisiae, UniProt P38959 1-992; Q07468 1-1049; P12868 1-1029; P27801 1-918; Q03308 1-798; P20795 …); test: FRAP and confocal imaging on supported lipid bilayers; 200 nM mNeon-pYpt7-GTP anchored in glass-supported lipid bilayers, 100 nM HOPS added; room temperature
T7 construct: Vps41, HOPS subunit, S. cerevisiae; Vps39, HOPS subunit, S. cerevisiae; Vps11, HOPS subunit, S. cerevisiae; Vps18, HOPS subunit, S. cerevisiae; Vps16, HOPS subunit, S. cerevisiae; Vps33, HOPS subunit, S. cerevisiae; 650 kDa heterohexamer; the 3HA follows the GAL1 promoter in the genotype; also called homotypic fusion and vacuole protein sorting complex; untagged HOPS; source: S. cerevisiae, …

Measured: binding result

B1: prenylated Ypt7 (natural protein, S. cerevisiae, UniProt P32939 1-208, looked up)
chain: MSSRKKNILKVIILGDSGVGKTSLMHRYVNDKYSQQYKATIGADFLTKEVTVDGDKVATMQVWDTAGQERFQSLGVAFYRGADCCVLVYDVTNASSFENIKSWRDEFLVHANVNSPETFPFVILGNKIDAEESKKIVSEKSAQELAKSLGDIPLFLTSAKNAINVDTAFEEIARSALQQNQADTEAFEDDYNDAINIRLDGENNSCSC
modifications: C-terminal prenyl (geranylgeranyl) group, added by in vitro prenylation
notes: Ypt7, Rab7-like GTPase of S. cerevisiae; pET24d-GST-TEV-Ypt7 is surmised (the other construct carries a C-terminal His6 tag); GDP-loaded with GDI, GTP-loaded on membranes; also called pYpt7; pYpt7-GTP; source: E. coli BL21 (DE3) Rosetta, purified, prenylated in vitro
binds: [1] | [2] | [3] | [4] | [5]

B2: prenylated mNeonGreen-Ypt7 (natural protein, S. cerevisiae, UniProt P32939 1-208, looked up)
chain: B1 chain
modifications: C-terminal prenyl (geranylgeranyl) group, added by in vitro prenylation
notes: Ypt7, Rab7-like GTPase of S. cerevisiae; GDP-loaded in the complex with GDI; GTP-loaded when anchored in the lipid layers; also called mNeon-pYpt7; mNeon-Ypt7; source: E. coli BL21 (DE3) Rosetta, purified (Glutathione Sepharose, TEV cleavage), prenylated in vitro; not shown: mNeonGreen (via a GGSGx3 linker), N-terminal, kept
binds: Mon1-Ccz1 complex | HOPS complex
